Columns and labels:
Type in all cases: biochemical
[1] = Carboxylate reductase activity, heptanedioate to 7-oxoheptanoate, NADPH consumption at 340 nm; settings: enhanced by gene product of sfp, 2 mM substrate, 20 min, against empty vector control, FIG. 43
Method: A sequence encoding a HIS-tag was added to the genes from Segniliparus rugosus and Segniliparus rotundus that encode the carboxylate reductases of SEQ ID NOs: 31 (GenBank Accession No. EFV11917.1) and 38 (GenBank Accession No. ADG98140.1), respectively, such that N-terminal HIS tagged carboxylate reductases could be produced. Each of the modified genes was cloned into a pET Duet expression vector along with a sfp gene encoding a HIS-tagged phosphopantetheine transferase from Bacillus subtilis, both under the T7 promoter. Each expression vector was transformed into a BL21[DE3] E. coli host and the resulting recombinant E. coli strains were cultivated at 37° C. in a 250 mL shake flask culture containing 50 mL LB media and antibiotic selection pressure, with shaking at 230 rpm. Each culture was induced overnight at 37° C. using an auto-induction media.
The pellet from each induced shake flask culture was harvested via centrifugation. Each pellet was resuspended and lysed via sonication, and the cell debris was separated from the supernatant via centrifugation. […]
Enzyme activity assays (i.e., from heptanedioate to 7-oxoheptanoate) were performed in triplicate in a buffer composed of a final concentration of 50 mM HEPES buffer (pH=7.5), 2 mM heptanedioate, 10 mM MgCl2, 1 mM ATP, and 1 mM NADPH. […] The consumption of NADPH was monitored by absorbance at 340 nm.

[2] = Carboxylate reductase activity, 7-hydroxyheptanoate to 7-hydroxyheptanal, NADPH consumption at 340 nm; settings: enhanced by gene product of sfp, 20 min, against empty vector control, FIG. 44
[3] = Carboxylate reductase activity, N7-acetyl-7-aminoheptanoate to N7-acetyl-7-aminoheptanal, NADPH consumption at 340 nm; settings: enhanced by gene product of sfp, 2 mM substrate, 20 min, against empty vector control, FIG. 45
Method: The activity of each of the N-terminal His-tagged carboxylate reductases of SEQ ID NOs: 29 (GenBank Accession No. ABK71854.1), 37 (Genbank Accession No. EIV11143.1), and 38 (GenBank Accession No. ADG98140.1) (see Examples 4) for converting N7-acetyl-7-aminoheptanoate to N7-acetyl-7-aminoheptanal was assayed in triplicate in a buffer composed of a final concentration of 50 mM HEPES buffer (pH=7.5), 2 mM N7-acetyl-7-aminoheptanoate, 10 mM MgCl2, 1 mM ATP, and 1 mM NADPH. The assays were initiated by adding purified carboxylate reductase and phosphopantetheine transferase or the empty vector control to the assay buffer containing the N7-acetyl-7-aminoheptanoate then incubated at room temperature for 20 min. The consumption of NADPH was monitored by absorbance at 340 nm.

[4] = Carboxylate reductase activity, 7-oxoheptanoate to heptanedial, NADPH consumption at 340 nm; settings: enhanced by gene product of sfp, 2 mM substrate, 20 min, against empty vector control, FIG. 46
Method: The N-terminal His-tagged carboxylate reductase of SEQ ID NO: 38 (GenBank Accession No. ADG98140.1) (see Example 4) was assayed using 7-oxoheptanoate as substrate. The enzyme activity assay was performed in triplicate in a buffer composed of a final concentration of 50 mM HEPES buffer (pH=7.5), 2 mM 7-oxoheptanoate, 10 mM MgCl2, 1 mM ATP and 1 mM NADPH. The enzyme activity assay reaction was initiated by adding purified carboxylate reductase and phosphopantetheine transferase or the empty vector control to the assay buffer containing the 7-oxoheptanoate and then incubated at room temperature for 20 min. The consumption of NADPH was monitored by absorbance at 340 nm.

[5] = Esterase activity assay, monomethyl heptanedioate to heptanedioic acid, LC-MS; settings: esterase assays
Method: A nucleotide sequence encoding a C-terminal His-tag may be added to the gene from Bacillus subtilis encoding the esterase of SEQ ID NO: 50 (NCBI Reference Sequence: NP_388108.1) such that a C-terminal HIS tagged esterase is produced. The resulting modified gene is cloned into a pET28b+ expression vector under control of the T7 promoter and the expression vector is transformed into a BL21[DE3] E. coli host. The resulting recombinant E. coli strain can be cultivated at 37° C. in a 500 mL shake flask culture containing 100 mL LB media and antibiotic selection pressure, with shaking at 230 rpm. Each culture is induced overnight at 18° C. using 0.3 mM IPTG.
The pellet from each induced shake flask culture can be harvested via centrifugation. Each pellet is resuspended and lysed via sonication. The cell debris is separated from the supernatant via centrifugation. The esterase can be purified from the supernatant using Ni-affinity chromatography, buffer exchanged and concentrated into 20 mM HEPES buffer (pH=7.5) via ultrafiltration and stored at 4° C.
Enzyme activity assays converting monomethyl heptanedioate to heptanedioic acid are performed in triplicate in a buffer composed of a final concentration of 25 mM Tris-HCl buffer (pH=7.0) and 5 [mM] monomethyl heptanedioic acid. […] The formation of heptanedioic acid can be quantified via LC-MS.

acceptance of heptanedioate as substrate, forming 7-oxoheptanoate [1] | acceptance of 7-oxoheptanoate as substrate, forming heptanedial [4] | Molecule | acceptance of 7-hydroxyheptanoate as substrate, forming 7-hydroxyheptanal [2] | acceptance of N7-acetyl-7-aminoheptanoate as substrate, forming N7-acetyl-7-aminoheptanal [3] | methyl ester hydrolysis of a C7 compound [5]
accepted heptanedioate as substrate | accepted 7-oxoheptanoate as substrate | SEQ ID NO: 38: Segniliparus rotundus carboxylate reductase (protein, listed as Segniliparus rotundus, Segniliparus rotundus (strain ATCC BAA-972 / CDC 1076 / CIP 108378 / DSM 44985 / JCM 13578), Segniliparus rotundus carboxylate reductase) MTQSHTQGPQASAAHSRLARRAAELLATDPQAAATLPDPEVVRQATRPGLRLAERVDAILSGYADRPALGQRSFQTVKDPITGRSSVELLPTFDTITYRELRERATAIASDLAHHPQAPAKPGDFLASIGFISVDYVAIDIAGVFAGLTAVPLQTGATLATLTAITAETAPTLFAASIEHLPTAVDAVLATPSVRRLLVFDYRAGSDEDREAVEAAKRKIADAGSSVLVDVLDEVIARGKSAPKAPLPPATDAGDDSLSLLIYTSGSTGTPKGAMYPERNVAHFWGGVWAAAFDEDAAPPVPAINITFLPLSHVASRLSLMPTLARGGLMHFVAKSDLSTLFEDLKLARPTNLFLVPRVVEMLYQHYQSELDRRGVQDGTREAEAVKDDLRTGLLGGRILTAGFGSAPLSAELAGFIESLLQIHLVDGYGSTEAGPVWRDGYLVKPPVTDYKLIDVPELGYFSTDSPHPRGELAIKTQTILPGYYKRPETTAEVFDEDGFYLTGDVVAQIGPEQFAYVDRRKNVLKLSQGEFVTLAKLEAAYSSSPLVRQLFVYGSSERSYLLAVIVPTPDALKKFGVGEAAKAALGESLQKIARDEGLQSYEVPRDFIIETDPFTVENGLLSDARKSLRPKLKEHYGERLEAMYKELADGQANELRDIRRGVQQRPTLETVRRAAAAMLGASAAEIKPDAHFTDLGGDSLSALTFSNFLHDLFEVDVPVGVIVSAANTLGSVAEHIDAQLAGGRARPTFATVHGKGSTTIKASDLTLDKFIDEQTLEAAKHLPKPADPPRTVLLTGANGWLGRFLALEWLERLAPAGGKLITIVRGKDAAQAKARLDAAYESGDPKLAGHYQDLAATTLEVLAGDFSEPRLGLDEATWNRLADEVDFISHPGALVNHVLPYNQLFGPNVAGVAEIIKLAITTRIKPVTYLSTVAVAAGVEPSALDEDGDIRTVSAERSVDEGYANGYGNSKWGGEVLLREAHDRTGLPVRVFRSDMILAHQKYTGQVNATDQFTRLVQSLLATGLAPKSFYELDAQGNRQRAHYDGIPVDFTAESITTLGGDGLEGYRSYNVFNPHRDGVGLDEFVDWLIEAGHPITRIDDYDQWLSRFETSLRGLPESKRQASVLPLLHAFARPGPAVDGSPFRNTVFRTDVQKAKIGAEHDIPHLGKALVLKYADDIKQLGLL | accepted 7-hydroxyheptanoate as substrate | accepted N7-acetyl-7-aminoheptanoate as substrate | –
– | – | esterase from Streptomyces diastatochromogenes: estA from Streptomyces diastatochromogenes classified under EC 3.1.1.1 (protein, Streptomyces diastatochromogenes) MARFRTRLALLGSAAALAAGAVVPAQLAGAQPAAAAADLQWVALGDSYTAGVIRAAGDAIDYPRDGCERTDRSYPQVIERDLYGLFDLTNVSCGAATIENVSDTPQYPIGRHMPPFSEDPDHPFPPVPPQSEAVGPGTDVITVGVGGNTLGFADILTKCQELGGESGGEGTPCKGALGSGIKARLDKVSQGYDRMLTVLHERGPKAKILTVGYPTVIPENTADCGYGDLTKFGTITQGDLAWLRQDVLEPLNKTIEDSAATQEAADFVNLYAPSQGHSVCDADKWVEGILTVSPNQDPQLSFVHPNASGHRNAADHVEEAMLNAIS | – | – | affected the methyl ester hydrolysis of a C7 compound

— US10801046B2, “Methods and materials for biosynthesizing multifunctional, multivariate molecules via carbon chain modification” (INVISTA NORTH AMERICA S.A.R.L., priority 2016, dated 2020)
